Results published in patent US20190144550A1 (Pfizer, published 2019).

How the values were obtained:
[1] = biological target: T1, human EGFRvIII expressed on cells (human, UniProt P00533 298-1210); assay: flow cytometry, F98-npEGFRvIII against F98, F98-EGFRwt and A431 cells
T1 construct: the F98-npEGFRvIII line was obtained from ATCC and its construct is not described; also called F98-npEGFRvIII; F98-EGFRvIII

[2] = biological target: T2, 8-histidine tagged recombinant wild-type protein EGFRwt (UniProt P00533 25-645, limits assumed); assay: SPR, captured by anti-mouse Fc
T2 construct: not shown: 8-histidine tag

[3] = biological target: T3, Monomeric 8-histidine tagged human EGFRvIII extracellular domain (human, UniProt P00533 298-645); assay: SPR, captured by anti-mouse Fc, 37 C
T3 construct: Analyte in all SPR assays; not shown: 8-histidine tag
From the text: To generate human antibodies against EGFRvIII, transgenic AlivaMab mice (Ablexis LLC, San Francisco, Calif.) were immunized with alternating schedule of paraformaldehyde-fixed rat glioblastoma cell line expressing EGFRvIII, F98-npEGFRvIII (American Type Culture Collection, Manassas, Va.) and peptides (SEQ ID NO: 227: […]) directed to the junction region in EGFRvIII. Hybridomas were generated using standard techniques. To determine the binding affinity and specificity of these hybridomas to EGFRvIII, antibodies in culture supernatants were captured by anti-mouse Fc using Biacore™ T200 biosensor equipped with anti-mouse Fc coupled CM4 sensor chips (Biacore™ AB, Uppsala, Sweden—now GE Healthcare). Monomeric 8-histidine tagged human EGFRvIII extracellular domain was then injected as the analyte at 10-fold dilution series starting with top concentration 1000 nM. Affinity of anti-EGFRvIII antibodies towards human EGFRvIII was measured at 37° C.

[4] = biological target: T1, human EGFRvIII expressed on cells; assay: flow cytometry, F98-npEGFRvIII cells
[5] = biological target: T3, Monomeric 8-histidine tagged human …; assay: SPR, scFv-Fc captured by anti-human Fc, 37 C
Protocol: The scFv fragment was then fused to human IgG1 Fc moiety to facilitate recombinant expression and purification. Affinities of the scFv-Fc fusion proteins were measured at 37° C. on a surface plasmon resonance Biacore™ T200 biosensor equipped with an anti-human Fc coupled CM4 sensor chip (GE Healthcare Inc., Piscataway, N.J.) as described above. scFv-Fc proteins were captured by anti-human Fc. Monomeric 8-histidine tagged human EGFRvIII extracellular domain was then injected as the analyte at 10-fold dilution series starting at 1000 nM.

[6] = biological target: T2, 8-histidine tagged recombinant …; assay: SPR, captured by anti-human Fc, 25 C

| Binder | fold MFI on EGFRvIII expressing cell line over non-expressing cell lines [1] [fold] | binding result [2] | Kd [3] [nM] | koff [3] [s⁻¹] | kon [3] [M⁻¹ s⁻¹] | % positive [4] [%] | MFI [4] | Kd [5] [nM] | koff [5] [s⁻¹] | kon [5] [M⁻¹ s⁻¹] | binding result [6] |
| --- | --- | --- | --- | --- | --- | --- | --- | --- | --- | --- | --- |
| 14C11 (antibody, V domains shown, Hybridoma supernatant (AlivaMab mouse); captured/detected via mouse Fc) VH: QVTLKESGPVLVKPTETLTLTCTVSGFSLNNARMGVSWIRQPPGKALEWFAHIFSTDEKSFRTSLRSRLTLSKDTSKSQVVLTMTNMDPVDTATYYCARDSSNYEGYFDYWGQGILVTVSS VL: EIVMTQSPATLSVSPGERATLSCRASQSVSNNLAWYQQKPGQAPRLLIYGASTRATGVPARFSGSDSGTEFSLTISSLQSEDFAVYFCQQYKDWPFTFGPGTKVEIK | ≥ 10 | no binding (tested: 1000 nM) | 78.5 | 0.00593 | 75500 | 98.2 | 3210 | – | – | – | – |
| C6.HL scFv-Fc protein (Fc fusion, HL: heavy-chain variable domain at the N-terminus; not shown: human IgG1 Fc moiety) QVQLVQSGAEVKKPGSSVKVSCKASGDTFSSNAISWVRQAPGQGLEWMGVIIPIFGTADYAQKFQGRVTITADESTSTAYMELSSLRSEDTAVYYCARHTYHEYAGGYYGGAMDPWGQGTLVTVSSGGGGSGGGGSGGGGSGGGGSELQSVLTQPPSASGTPGQRVTISCSGSSSNIGSNYVYWYQQLPGTAPKILIYRNNQRPSGVPDRFSGSKSGTSASLAISGLRSEDEADYYCAAWDDNLSGWVFGTGTKLTVL | – | – | – | – | – | – | – | 1060 | 0.02 | 19000 | no binding (tested: 1000 nM) |
| 26B9.HL scFv-Fc protein (Fc fusion, HL: heavy-chain variable domain at the N-terminus; not shown: human IgG1 Fc moiety) EVQLVESWGVLVKPGGSLRLSCAASGFIFNNAWMSWVRQAPGKGLEWIGRIKSKSDGGTTDYAAPVKDRFTISRDDSKDTLYLQMNGLKTEDTAVYFCTTAPGGPFDYWGQGTLVTVSSGGGGSGGGGSGGGGSGGGGSDIVLTQSPLSLPVTPGEPASISCRSSQSLLHRDGFNYLDWFLQKPGQSPQLLIYLASSRASGVPDRFSGSDSGTDFTLKISRVEAEDVGVYYCMQALQTPITFGQGTRLEIK | – | – | – | – | – | – | – | 705 | 0.04 | 57000 | no binding (tested: 1000 nM) |
| 30D8.HL scFv-Fc protein (Fc fusion, HL: heavy-chain variable domain at the N-terminus; not shown: human IgG1 Fc moiety) EVQLVESGGGLVKPGGSLRLSCEASGFTFSDAWMSWVRQAPGKGLEWVGRIKSKTDGGTTDYVVPLNGRFIISRDDSRNTLYLQLNNLKTEDTAVYYCTTVPGSYGYWGQGTLVTVSSGGGGSGGGGSGGGGSGGGGSDIVMTQSPLSLPVTPGEPASISCRSSQSLLHNKRNNYLDWFLQKPGQSPQLLIYLASNRASGVPDRFSGGGSGTDFTLKISRVEAEDVGVYYCMQAQQTPITFGQGTRLEIK | – | – | – | – | – | – | – | 225 | 0.053 | 230000 | no binding (tested: 1000 nM) |
| 14C11.HL scFv-Fc protein (Fc fusion, HL: heavy-chain variable domain at the N-terminus; not shown: human IgG1 Fc moiety) QVTLKESGPVLVKPTETLTLTCTVSGFSLNNARMGVSWIRQPPGKALEWFAHIFSTDEKSFRTSLRSRLTLSKDTSKSQVVLTMTNMDPVDTATYYCARDSSNYEGYFDYWGQGILVTVSSGGGGSGGGGSGGGGSGGGGSEIVMTQSPATLSVSPGERATLSCRASQSVSNNLAWYQQKPGQAPRLLIYGASTRATGVPARFSGSDSGTEFSLTISSLQSEDFAVYFCQQYKDWPFTFGPGTKVEIK | – | – | – | – | – | – | – | 104 | 0.0043 | 42000 | no binding (tested: 1000 nM) |
| 14C11.LH scFv-Fc protein (Fc fusion, LH: light-chain variable domain at the N-terminus; not shown: human IgG1 Fc moiety) EIVMTQSPATLSVSPGERATLSCRASQSVSNNLAWYQQKPGQAPRLLIYGASTRATGVPARFSGSDSGTEFSLTISSLQSEDFAVYFCQQYKDWPFTFGPGTKVEIKGGGGSGGGGSGGGGSGGGGSQVTLKESGPVLVKPTETLTLTCTVSGFSLNNARMGVSWIRQPPGKALEWFAHIFSTDEKSFRTSLRSRLTLSKDTSKSQVVLTMTNMDPVDTATYYCARDSSNYEGYFDYWGQGILVTVSS | – | – | – | – | – | – | – | 136 | 0.0065 | 48000 | no binding (tested: 1000 nM) |
| 26B9.LH scFv-Fc protein (Fc fusion, LH: light-chain variable domain at the N-terminus; not shown: human IgG1 Fc moiety) DIVLTQSPLSLPVTPGEPASISCRSSQSLLHRDGFNYLDWFLQKPGQSPQLLIYLASSRASGVPDRFSGSDSGTDFTLKISRVEAEDVGVYYCMQALQTPITFGQGTRLEIKGGGGSGGGGSGGGGSGGGGSEVQLVESWGVLVKPGGSLRLSCAASGFIFNNAWMSWVRQAPGKGLEWIGRIKSKSDGGTTDYAAPVKDRFTISRDDSKDTLYLQMNGLKTEDTAVYFCTTAPGGPFDYWGQGTLVTVSS | – | – | – | – | – | – | – | 494 | 0.034 | 69000 | no binding (tested: 1000 nM) |
| h62G7-L6/EQ scFv-Fc protein (Fc fusion, not shown: human IgG1 Fc moiety) DVVMTQSPLSLPVTLGQPASISCKSSQSLLYSNGKTYLNWFQQRPGQSPRRLIYQVSKLDSGVPDRFSGSGSGTDFTLKISRVEAEDVGVYYCGQDTHFPLTFGGGTKVEIKGGGGSGGGGSGGGGSGGGGSQVQLVQSGAEVKKPGASVKVSCKASGYTFTDYTLHWVRQAPGQGLEWMGGIWPITGGTTYNQKFKGRVTMTRDTSTSTVYMELSSLRSEDTAVYYCARGEAQGSWGQGTLVTVSS | – | – | – | – | – | – | – | 101 | 0.076 | 750000 | no binding (tested: 1000 nM) |

Results, then the binder that gave them:

| fold MFI on EGFRvIII expressing cell line over non-expressing cell lines [1] [fold] | binding result [2] | Kd [3] [nM] | koff [3] [s⁻¹] | kon [3] [M⁻¹ s⁻¹] | % positive [4] [%] | MFI [4] | Kd [5] [nM] | koff [5] [s⁻¹] | kon [5] [M⁻¹ s⁻¹] | binding result [6] | Binder |
| --- | --- | --- | --- | --- | --- | --- | --- | --- | --- | --- | --- |
| – | – | – | – | – | – | – | 82.7 | 0.0025 | 30000 | no binding (tested: 1000 nM) | 20B9.LH scFv-Fc protein (Fc fusion, LH: light-chain variable domain at the N-terminus; not shown: human IgG1 Fc moiety) EIVMTQSPATLSVSPGERATLSCRVSQSIGANLAWYQQKFGQAPRLLIYGASTRATGIPVRFSGGGSGTEFTLTISSLQSEDFAIYSCQQYIYWPFTFGPGTTVDIKGGGGSGGGGSGGGGSGGGGSQVTLKESGPVLVKPTETLTLTCTVSGFSLSNARMGVSWIRQPPGKALEWLGHIFSTDEKSYSTSLRGRITISKDTSRGLVVLTLTNMDPVDTATYYCARDSSNYEGYFDFWGPGFLVTVSS |
| – | – | – | – | – | – | – | 18.8 | 0.0011 | 56000 | no binding (tested: 1000 nM) | 42G9.HL scFv-Fc protein (Fc fusion, HL: heavy-chain variable domain at the N-terminus; not shown: human IgG1 Fc moiety) QVTLKESGPVLLKPTETLTLTCTVSGFSLSNPRMGVSWIRQPPGKALEWFAHIFSTDEKSLKLSLRSRLTLSKDTSKSQVVLTMTNMAPVDSATYYCARDSSNYEGYFDFWGQGTLVTVSSGGGGSGGGGSGGGGSGGGGSEVVLTQSPATLSVSPGERATLSCRASQSVRSNLAWYQQKSGQAPRLLIYGSTIRATGVPARFSGSGSGTEFTLTISSLQSEDFAVYYCQQYSDWPFTFGPGTKVDIK |
| – | – | – | – | – | – | – | 73.8 | 0.0018 | 24000 | no binding (tested: 1000 nM) | 20B9.HL scFv-Fc protein (Fc fusion, HL: heavy-chain variable domain at the N-terminus; not shown: human IgG1 Fc moiety) QVTLKESGPVLVKPTETLTLTCTVSGFSLSNARMGVSWIRQPPGKALEWLGHIFSTDEKSYSTSLRGRITISKDTSRGLVVLTLTNMDPVDTATYYCARDSSNYEGYFDFWGPGFLVTVSSGGGGSGGGGSGGGGSGGGGSEIVMTQSPATLSVSPGERATLSCRVSQSIGANLAWYQQKFGQAPRLLIYGASTRATGIPVRFSGGGSGTEFTLTISSLQSEDFAIYSCQQYIYWPFTFGPGTTVDIK |
| – | – | – | – | – | – | – | 24.5 | 0.0012 | 47000 | no binding (tested: 1000 nM) | 32A10.HL scFv-Fc protein (Fc fusion, HL: heavy-chain variable domain at the N-terminus; not shown: human IgG1 Fc moiety) QVTLKESGPVLVKPTETLTLTCTVSGFSLSNARMGVSWIRQPPGKALEWLAHIFSTDEKSIRRSLRSRLTLSKDTSKSQVVLTMTNMDPVDTATYFCARDSSNYEGYFDYWGQGTLVTVSSGGGGSGGGGSGGGGSGGGGSEVVMTQSPATLSVSPGERVTLSCRASQSVSSNFAWYQQRPGQAPRLLLYGATTRATGLPGRFSGSGSGTENILTISSLQSEDFAIYFCQQYKDWPFTFGPGSKVDIK |
| – | – | – | – | – | – | – | 29.8 | 0.0012 | 41000 | no binding (tested: 1000 nM) | 32A10.LH scFv-Fc protein (Fc fusion, LH: light-chain variable domain at the N-terminus; not shown: human IgG1 Fc moiety) EVVMTQSPATLSVSPGERVTLSCRASQSVSSNFAWYQQRPGQAPRLLLYGATTRATGLPGRFSGSGSGTENILTISSLQSEDFAIYFCQQYKDWPFTFGPGSKVDIKGGGGSGGGGSGGGGSGGGGSQVTLKESGPVLVKPTETLTLTCTVSGFSLSNARMGVSWIRQPPGKALEWLAHIFSTDEKSIRRSLRSRLTLSKDTSKSQVVLTMTNMDPVDTATYFCARDSSNYEGYFDYWGQGTLVTVSS |
| – | – | – | – | – | – | – | 22.1 | 0.00088 | 40000 | no binding (tested: 1000 nM) | 42G9.LH scFv-Fc protein (Fc fusion, LH: light-chain variable domain at the N-terminus; not shown: human IgG1 Fc moiety) EVVLTQSPATLSVSPGERATLSCRASQSVRSNLAWYQQKSGQAPRLLIYGSTIRATGVPARFSGSGSGTEFTLTISSLQSEDFAVYYCQQYSDWPFTFGPGTKVDIKGGGGSGGGGSGGGGSGGGGSQVTLKESGPVLLKPTETLTLTCTVSGFSLSNPRMGVSWIRQPPGKALEWFAHIFSTDEKSLKLSLRSRLTLSKDTSKSQVVLTMTNMAPVDSATYYCARDSSNYEGYFDFWGQGTLVTVSS |
